Data taken from the Human Domainome abundance scans (Beltran et al. 2025).

B1: POU domain, class 3, transcription factor 1, residues 247 to 324; numbered along this chain, Q03052 (parent)
chain: EDAPSSDDLEQFAKQFKQRRIKLGFTQADVGLALGTLYGNVFSQTTICRFEALQLSFKNMCKLKPLLNKWLEETDSSS

Variants of: B1
Test: abundance fitness (aPCA) (normalised: wild type 0, dead -1); higher = more abundant; growth selection in yeast, the domain comes from the species named
Settings: Homo sapiens

Abundance fitness, by site and new letter:
F42: W -0.191 | V 0.064 | E -0.114 | T -0.071 | L -0.043 | N -0.597 | G -0.594 | M 0.014 | H -0.226 | I 0.231 | S -0.365 | R -0.493 | K -0.656 | D -0.295 | P -0.265 | Y 0.048 | Q 0.001
R49: W 0.051
C48: D 0.307 | S 0.144 | Q 0.064 | F 0.068 | A 0.129 | W -0.37 | Y -0.312 | K -0.011 | P -0.175 | T -0.086 | G 0.032 | I 0.094 | E 0.174 | N -0.21 | V -0.151 | H -0.021 | L -0.04
F50: M -0.597 | S -0.802 | R -0.785 | A -0.826 | I -0.556 | P -0.484 | K -0.903 | E -0.299 | C -0.943 | N -0.874 | L -0.718 | Q -0.498 | D -0.993 | H -1.09 | G -0.736
T46: S -0.191 | V -0.096 | Q -0.314 | H -0.261 | C -0.64 | K -0.304 | I -0.121 | N -0.373 | L -0.279 | P -0.533 | D 0.118 | A -0.125 | R -0.509 | Y -0.037 | M 0.069
V41: Y -0.079 | D -0.141 | S 0.05 | H 0.253 | R -0.035 | L -0.127 | K 0.141 | M 0.03 | P 0.087 | E 0.058 | A -0.018 | C -0.142 | F -0.427 | I 0.025 | Q 0.093 | G 0.016 | N 0.116
S43: H -0.108 | Y -0.389 | R -0.329 | P -0.007 | K -0.234 | L -0.872 | D 0.17 | F -1.04 | M -0.63 | N 0.045 | W -0.371 | G -0.297 | V -0.835 | T -0.04 | C -0.485 | A -0.378
T45: C -0.346 | M -0.205 | Q 0.167 | P -0.434 | Y -0.304 | N 0.112 | L -0.102 | H -0.055 | D 0.254 | W -0.443 | S -0.017 | I -0.557 | R 0.016 | A -0.023 | F -0.016 | E 0.185 | V -0.148 | G -0.076
I47: M -0.69 | V -0.228 | W -0.408 | A -0.765 | D -1.24 | H -0.944 | C -0.294 | Q -0.954 | G -0.751 | E -1.12 | R -0.555 | S -0.736 | L -0.304 | P -0.661 | T -0.883
Q44: F -0.323 | Y -0.266 | A 0.119 | T 0.118 | N 0.01 | E 0.266 | H -0.046 | I -0.472 | C -0.515 | G 0.03 | K 0.041 | D 0.195 | P 0.132 | M -0.262 | L -0.502 | S 0.025 | V -0.209 | R -0.067 | W -0.55
N40: G 0.008 | I -0.117 | E 0.031 | K 0.263 | R 0.07 | F -0.167 | L -0.237 | M -0.126 | Q 0.103 | P -0.276 | D 0.062 | W -0.244 | S 0.004 | V -0.131 | T 0.031 | H -0.179 | Y -0.282
